Reference: the DeepSol protein solubility set

Assay: soluble on expression in E. coli; label from the status in PepcDB or PDB records

**Q.** For “MSLFPSSEVEAKRTTLNLELESNTDRLLQEKDDLLPQSVTNSSDEGTPFAQVEGASDDNTAEQDSDKPGASVADADTKPVDPEWKTITVASGDTLSTVFTKAGLSTSAMHDMLTSSKDAKRFTHLKVGQEVKLKLDPKGELQALRVKQSELETIGLDKTDKGYSFKREKAQIDLHTAYAHGRITSSLFVAGRNAGLPYNLVTSLSNIFGYDIDFALDLREGDEFDVIYEQHKVNGKQVATGNILAARFVNRGKTYTAVRYTNKQGNTSYYRADGSSMRKAFIRTPVDFARISSRFSLGRRHPILNKIRAHKGVDYAAPIGTPIKATGDGKILEAGRKGGYGNAVVIQHGQRYRTIYGHMSRFAKGIRAGTSVKQGQIIGYVGMTGLATGPHLHYEFQINGRHVDPLSAKLPMADPLGGADRKRFMAQTQPMIARMDQEKKTLLALNKQREGHHHHHH”, which “soluble on expression in E. coli” value is on record?
**A.** soluble

**Q.** For “GSHMTSFLHAYFTRLHCQPLGVPTVEALRTLHLAHNCAIPFENLDVLLPREIQLDETALEEKLLYARRGGYCFELNGLFERALRDIGFNVRSLLGRVILSHPASLPPRTHRLLLVDVEDEQWIADVGFGGQTLTAPLRLQAEIAQQTPHGEYRLMQEGSTWILQFRHHEHWQSMYCFDLGVQQQSDHVMGNFWSAHWPQSHFRHHLLMCRHLPDGGKLTLTNFHFTRYHQGHAVEQVNVPDVPSLYQLLQQQFGLGVNDVKHGFTEAELAAVMAAFDTHPEAGK”, which “soluble on expression in E. coli” value is on record?
**A.** soluble

**Q.** For “MNVMDTHPDGRAIAHLAERIRAGLIGHEILVERLMTALLTGGHVLIEGAPGLAKTRAVKRLAQGLDGSFARIQCTPDLMPSDLTGTQVFRRQSESFDFVPGPIFHSLVLVDEINRAPPKVQSALLEAMAEGQVTAGGVTRPLPDPFMVVATQNPIEHEGTFPLPEAQLDRFLLHVDLAMPGAEAERAILDLVEGEAREAALPAGRPLELAELRRARAAVAGIHLAPALRDFIVRLVIATRETEGSPLEGLIEHAVSPRGTLALAASARSRALLHGRDHALPEDVEALAPDALAHRLVPSWRATSEGISARGIVARLLPHVRPWLEHHHHHH”, which “soluble on expression in E. coli” value is on record?
**A.** not soluble

**Q.** Which “soluble on expression in E. coli” value does the source give for “MGSDKIHHHHHHMNQFHLTEDQQDCLQELINIAMGQASDQLARYLDTFVYLKVPSIESVEAKDLMKTLSQQKNTVAVVSQGFFGYEGIRGEALLVYKEENSGRIADLLGYEPDELSQDEQLIDISSILTTTFLNVFAQQINNQLSYNAPKLLPNVQEILSEHLQQMPFTWDLALKVNINYQVTDYSFNCNMILLIPETAITNIKHVLDRILEEF” here?
**A.** not soluble

**Q.** With “MKIEIKVQIKDGKNSPNLKPGGYIVSASKSFSIDYSKAVAITRNPEIYKNIGIPYIWISKVEGENAISPTNLPKLLHTMISLSKKHPGVTFIIDSVEYLALENGFESTFKFLISAKDHLMLNNSSLVLIIEDKAFKPNELALLKKEFKEISLEHHHHHH” as the sequence, how does the “soluble on expression in E. coli” value read?
**A.** soluble

**Q.** For “GSHMTGISRETSSDVALASHILTALREKQAPELSLSSQDLELVTKEDPKALAVALNWDIKKTETVQEACERELALRLQQTQSLHSLRSISASKASPPGDLQNPKRARQDPT”, which “soluble on expression in E. coli” value is on record?
**A.** soluble

**Q.** With “MDAIVMAGGFGQRLGMGEKPCVELLGKPLITYVIDNLRASKNIDRVFVAVSPVTPKTEIMIQERYKGEVQVIRTFGGNYVGDMIHAVETSNTAGPVMIIMSDLPLVNPDLIDSVIEKYREEGKPALSVYVPINVCRGTGTRPDTVFNKDGKLIVPAGVNILDSSQIRKEQEDFNLILDNPRLAINVNTVKDLQRCKDLLQCSN” as the sequence, how does the “soluble on expression in E. coli” value read?
**A.** soluble

**Q.** Which “soluble on expression in E. coli” value does the source give for “MGSDKIHHHHHHMWSHQSWQDSVYGHQTKATERLAHYAHIFNSVEGNTSFYATPAPQTVLNWHSATPDNFRFTFKLPQRITHQKQLQDCNQDLRDFFHIMAPLIEKTGIWKIQLPAHFGPEQLPVLARFLDHVPQGLTYGVEVRHFAFFAKGDAERTLNRLLIDKKVNRIIMDSRPVFALPPFNETIIDAHKKKPRVPVHPIATANNPVVRFIGQADGTLALLTQLGTTALPKDNDAFFTHWLKQLTLWLNEGREPYLFIHTPDNQTAPELAARLYRKLQLHIAEHIQLADIKLLEKKAEEKSAQMGLDW” here?
**A.** not soluble

**Q.** With “MRETKEWRGTTSTSRVFVQKGYQLSDELALRKVQVLERRYGGMQLAHRAATVIQRAWREYCIMKQWMVIRHKHDTIPDHLDARCGVSNSQRNELSLTSRYATSLSAQLRIDRAARSTTLDRSPPSPAPPVLVNLQNSNMIDSLMSPRLGNRRFGAAASRCAPAAAELTSTEVWLPRPSLVNHNPAHSNSLPRLQLLTAWGFVKNSPDSLASLLFGRRGLSKSMIGEYIGTLHSPYHSLVLKYFTALIDIRGLEVDVALRKAMQFFILPKEAEKIDRIIQAFALHYSKSNPKRTSHYRGGWDTIHLLSFAIIMLNTDLHSPNVKQRMTQADFVKNLRGQDKISGEKNGEDIDRKTLEGIYDRIKKDELKAGDDHVAQVQRVDRAIVGKDKPRLTETPRRLVCYCRLQQVSDPTKRQSSSARERDVFLFNDMIVVAKGVRRGSTSMAGCTYTLKQWTLLLGAHVTEFQRGQYEFGLTITCPNKDKIHFNARNFEDRCHFVADVTESIREATEMEQVRLEMEMEQHTTTTIRPDNQRDSGLPDMDESMKLSNGSNSSAGSSNSSTNGVNNSSFRRLSFNSLDSGVVEEHLDAC” as the sequence, how does the “soluble on expression in E. coli” value read?
**A.** not soluble

**Q.** With “MYFPSGSDPFAVGEDLGVWAPADHQRIIAKLTTGLGVLFYHTKAIHLEPLPETMLDDAKASLVPDLSLVDNESSETPIIIEVCKTAGLKGDLRKVIQLIDDGIYGIREGFVYNYKTQQWLRYRFGDGGLTTESSFSEILNLDLNTFL” as the sequence, how does the “soluble on expression in E. coli” value read?
**A.** not soluble

**Q.** With “MLARGKTNLKIEEIRMHKHHEIHRVKPLMPALCRIRQGKKVINWETHTLTVDNNQIILFPCGYEFYIENYPEAGLYLAEMLYLPIDLIESFQKLYTVTDQIRNKTSFFLPQNPELIYCWEQLKTSVSRGFSTKIQEHLAMGVLLSLGVNHVNHLLLSYSKQSLISRCYNLLLSEPGTKWTANKVARYLYISVSTLHRRLASEGVSFQSILDDVRLNNALSAIQTTVKPISEIARENGYKCPSRFTERFHNRFNITPREIRKASRE” as the sequence, how does the “soluble on expression in E. coli” value read?
**A.** soluble

**Q.** Which “soluble on expression in E. coli” value does the source give for “MTKSRKQKQKKQDFLRKKLKVGKPKEKARNATDTSFVSKTISIRNQHLDQNPHDLTKRLTLLKHHNINVRKETLTTFQKSIPSIIKSRLMTPLLTQSIPLICDESQQVRQGLIDLVDEIGSHDAEILKLHCNIFVLYINMAMTHIVTQIQADSTKFLSHLLKYCGDEVVRKSWVKLLNGVFGVLGWGQVGKNDSASIVQTKKRNAKYVTIHLNALYTLVEYGCQDERARSDGDTAETTEDSGTLRNPYLIPDYPQPFEHLKLFTRELKVQDATSSGVNATLLSLATQDIDTRKAVFIEQFLPIVRKKIEVIIKEGGECGKSANKLKTLLAKIFD” here?
**A.** soluble

**Q.** Which “soluble on expression in E. coli” value does the source give for “MAHHHHHHMVNLRLQVAVVGAPTVGKTAFVQMLHSNGTTFPKNYLMTLGCDFIVKEVPVDDDNTVEMIIFDVSGQREYEPMVSSYLQNTAVFIVMYDVSNKVTFEACARWVNQVRTNSKESVGILIANKSDLSDKAEVTDRQGKDLANANKMKFYKISTLRGVGITEPIDEIARHYVDAYQKRIEQLTQMR” here?
**A.** not soluble

**Q.** For “MGSDKIHHHHHHMNTTNQTAPQGFRLNALGHAVPESQIKEIDKLRDELVLQIVTAAKEMQGHMATYKATSMRAVADFIDLSASEFGVKFGGTKGNVSLVSFDGKYKVQRSIGEHRVFDERIQAAKSKIDDCIKRWSVGSNDHIKALVELSFKVNKQGYIDINQVLSLRQLDIDDTDWRSAMDAIADSIQVMGSTPYLRVYERQDDGTYKQISLDIAKL”, which “soluble on expression in E. coli” value is on record?
**A.** not soluble

**Q.** Which “soluble on expression in E. coli” value does the source give for “GRLDHNVEAAMGDETKYARINANRSVSNDYQDGNGDSVHSSWERWNADLALGWKPTQDSWIELKGGKGNGEAAYAGRTMDGTQFQRESLGLHAEQKNLTDVIKKVEAQVDYSYNDHIMDNYKMRTPPMMPMAMEVTRRTLNARAAITTEWDRLNVISGVDSQRNKHAGNMYMRDANPIPPLDGDLRFESYGAFSEWTYRLNP” here?
**A.** not soluble

**Q.** For “MGSDKIHHHHHHLFNYFQLNDPKDFKHLLNMAGQDILINGKPARALITNTNLTESKDNRNITTLENIESGYLIDYDDGKWLVISEVSGKRYNKYKGIMQKCHNTLTVNIAGILHRVPYVVTNKVNLNIDVTYYLTVLENEIYILVANNTINSNIQLNDIYKIGRFNYKVISMDDISRPGLLLMKMKYSEEGQVLPNYSITILNGDTLTTDTATPVQLNVEQKDGETVLTNPLPMVFTSSDISIATVDSTGMVTPVSVGNVTITVSFESDTTVNDSIVITVEEVEVPETYTLELIGDTEIKQNQTKTYTAVKKNGLGDIVEGATFDFSIDPETTPADKYTLTVLDNTQCSIKANGATYYINLIATDRTDNSLTVSKRIWLKPLF”, which “soluble on expression in E. coli” value is on record?
**A.** not soluble

**Q.** Which “soluble on expression in E. coli” value does the source give for “MGSDKIHHHHHHMSETNAQKVQEVIIAGMSKTVANYDYAMSELEALVAANNMHAALRIDQGLEKPNPATFFGKGKVVEIKEVAAANDLHIMVINADLTPSQVRNLEEQTDIQIIDRTGLILEIFGNRARSKEAKLQVKIAQLQYQLPRLRTSISNRLDQQAGAAAGGGGGFTNRGAGETQLELNRRTIQDRISHAKHELKELNKDEVVRRSQRDKAGLPNVALVGYTNAGKSTTMNGLVKLFGKGEDKQVFEKDMLFATLDTSIRQLTFPDNKQLLLSDTVGFVSDLPHNLINAFRSTLAEAANADLLIQVIDYADPHYKEMMATTEKTLKEIGVHDVPMIYAFNKADLTEADYPNQQDDQLIYTARDEASLQALTSMIKAKVFKNYVTTTLLIPFNDGEVVAYLNDHANILKTDYLADGTQLTVELNTVDAQRYEKYVVTPA” here?
**A.** not soluble

**Q.** With “MGSDKIHHHHHHMTQFWRDPTLPFVESRRATDSRACYRPHSHPTLSIGVVDRGQSQFQCQRRREWLTPGCLVSVPAGVVHDCNPLPDQPWSYQMLYLEPAWVSEVLDEASAETDAAPTLPSTVFIARDVAPYQAFCRLNALLFSSAPRADKEAGLIEFLGSRLWCHGDAMAVHWPNSSDLDDLQRHLLECLERPPSLEVLARDHGLSRYQVIRLFRRETGLTPHAWLLDRRIQQARRRLCQGVELAELAQELGFADQGHFQRAFKARVAATPGRYRST” as the sequence, how does the “soluble on expression in E. coli” value read?
**A.** not soluble

**Q.** With “MGSDKIHHHHHHMSAVTESVLESIISPVTMSEFLEEYWPVKPLVARGEVERFTSIPGFEKVRTLENVLAIYNNPVMVVGDAVIEESEGITDRFLVSPAEALEWYEKGAALEFDFTDLFIPQVRRWIEKLKAELRLPAGTSSKAIVYAAKNGGGFKAHFDAYTNLIFQIQGEKTWKLAKNENVSNPMQHYDLSEAPYYPDDLQSYWKGDPPKEDLPDAEIVNLTPGTMLYLPRGLWHSTKSDQATLALNITFGQPAWLDLMLAALRKKLISDNRFRELAVNHQSLHESSKSELNGYLESLIQTLSENAETLTPEQIFQSQDSDFDPYQSTQLVFRQLLTSYKF” as the sequence, how does the “soluble on expression in E. coli” value read?
**A.** soluble

**Q.** For “MGSDKIHHHHHHMEMNEVIIDENLKESIDLWTFMLPIISHRTTIRKNIHGYMPLHWHDELQFVVIIQGEARFQVNEEAIIVQEGDGLFINSGCLHMVEDGNGSNCVYICLNVPAQSIISRELYTAYVAPYVQATNLPYVLIPSSEMWGQNIIEATLNIHQCLEEQPPYYEMDITTKLTVIWKSLITNGFPLEYDQSAMIKNQRMKAMLQWIHLHYGENIRLDDIAKAGQLSRSECCRYFKRTLKMTPLQYVTDYRIQKSVTLLQQPESNVTDVAYQVGFNSTSYFIDQFRKAMNMTPLRYKKSKLERLID”, which “soluble on expression in E. coli” value is on record?
**A.** not soluble
